{"source": "the nanobody polyreactivity screen of Harvey et al. (2022)", "data": [{"experiment": "yeast display, Sf9 membrane polyspecificity reagent, FACS + sequencing; frameworks hold sequencing errors", "summary_of_the_method": "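Galactose induction of a Saccharomyces cerevisiae BJ5465 synthetic nanobody display library ran 36–48 hours. The cells were then stained for 1 hour at 4 °C with 10% biotinylated, detergent-solubilized Sf9 membrane reagent, pulled down on streptavidin microbeads and FACS-sorted into low and high (top ~1%) gates on expression and reagent-binding fluorescence. Labels for polyreactivity follow the gate of origin.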", "values": [{"sequence": "QVQLVESGGGLVQAGGSLRLSCAASGRIFGYYAMGWYRQAPGKERELVAAIRRSGGSTYADSVKGRFTISRDNAKNTVYLQMNSLKPEDTAVYYCAAWIYEYDYWGQGTQVTVSS", "polyreactivity (PSR sort gate)": "high polyreactivity"}, {"sequence": "QVQLVESGGGLVQAGGSLRLICAASGSIFADYVMGWYRQAPGKERELVAAITIDGGSTYYADSVKGRFTISRDNAKNTVYLQMNSLKPEDTAVYYCAADSSGRSDSWGQGTQVTVSS", "polyreactivity (PSR sort gate)": "low polyreactivity"}, {"sequence": "QVQLVESGGGLVQAGGSLRLSCAASGSIIVLNAMGWYRQAPGKERELVAAISSDGITYYADSVKGRFTISRDNAKNTVYLQKNSLKPEDTAVYYCAAYRVDYSDAYYYWGQGTQVTVSS", "polyreactivity (PSR sort gate)": "low polyreactivity"}, {"sequence": "QLQLVESGGGLVQAGGSLRLSCAASGSIFSFYAMGGYRQAPGKERELVATITYGSGSTHYADSVKGRFTISRDNAKNTVYLQLNSLKPEDSAVYYCAGETVRYEWGDSPAALFDYWGQGTQVTVSS", "polyreactivity (PSR sort gate)": "low polyreactivity"}, {"sequence": "QFHLVESGGGLLQAGGSLRLSCAASGRIFYANDMGWYRQAPGKERELLAAISQSGGSTFYADSVKGRFTISRDNAKNTVYLQMNSLKPEDTAVYYCATDYYGPVYDLDYDYWGQGTQVSVSS", "polyreactivity (PSR sort gate)": "low polyreactivity"}, {"sequence": "QVQLVESGGGIVQAGGSLRLSCAASGIIFKYYAMGWYRQAPGKERELVAAISRIGGSTHYADSVKGRFTISRDNAKYTVYLQMNSLKPEDTAVSYCAARVLGRPLYFIYDYWGQGTQVTVSS", "polyreactivity (PSR sort gate)": "high polyreactivity"}, {"sequence": "QVQLVESGGGLVQAGGSLRLSCAASGFIFLNYAMGWYRQAPGKERELVAAITSGGNTTYADSVKGRFTISRDNAKNTVYLQMNSLKPEDTAVYYCAADGWRAGPGDYWGQGTQVIVSS", "polyreactivity (PSR sort gate)": "low polyreactivity"}, {"sequence": "QVQLVESGGGLVQAGGSLRLSCAASVSTFVRYAMGWYRPAPGKDRELVAAIDGGGTTKYADSVKGRFTISRDNAKNTVYLQMNSLKTEDTAVYYCAADQVWGYDSWGQGTQVTVSS", "polyreactivity (PSR sort gate)": "low polyreactivity"}, {"sequence": "QVQLVESGGGLVQAGGSHRLICAASGFNFYIYAMGWYRQAPGKERELVAAISWNGGSTYYADSVKGRFTISRDIAKNTVYLQMNSLKPEDTAVYYCAARHYYFYYHGYVKYDYWGQGTQVTVSS", "polyreactivity (PSR sort gate)": "high polyreactivity"}, {"sequence": "QVQLVESGGGLVQAGGSLRLSCAASGITFYYNAMGWYRQAPGKERELVAAIRSAGSTYYADSVKGRFTISRDNAKNTVYLQMNSLKPEDTAVYYCAAEDGNTDQVRVYWIMDYWGQGTQVTVSS", "polyreactivity (PSR sort gate)": "low polyreactivity"}, {"sequence": "QVQLVESGGGLVQAGGSLRLSCAASGRILGRNAMGRYRQAPGKEREFVAGISYSGTSTYYADSVKGRFTISRDNAKNTVYLQMNSLKPEDTAVYYCAARSTWFQIRYGYWGQGTQVTVSS", "polyreactivity (PSR sort gate)": "high polyreactivity"}, {"sequence": "QVQLVESGGGLVQAGGSLRLSCAASGSTFNNYAMGSYRQAPGKVREFVAAINGSGGSTYYADSVKGRFTISRDNAKNTVYLQLNSRKPEDPAVYYCAADVSATAYYDLMDYWVQGTQVTVSS", "polyreactivity (PSR sort gate)": "low polyreactivity"}, {"sequence": "QVHLVESGGGLVQAGGSLRLSCAASGRTFSRYPMGWYRQAPGKERELVAAIRGNSGNTYYAYSVKGRFTISRDNAKNTVYLQMNSLKPEDTAVYYCAKPFNIWGQGTQVTVSS", "polyreactivity (PSR sort gate)": "high polyreactivity"}, {"sequence": "QVQLVESGGGLVQAGGSLRLSCAASGRTFFPYAMGWYRQAPGKERELVAAITGSGSSTNYADSVKGRFTISRDNAKNTVYLQMTRLKPVDTAVYYCAKPYYRLEDYWGQGTQVTVSS", "polyreactivity (PSR sort gate)": "low polyreactivity"}, {"sequence": "QVQLVESGGGLVQAGGSLRLSCAASGGIFTYYTMGWYRQAPGKERELVAAISRRVGRTYYADSVKGRFTISRDKANNTVYLQMNSLKPEDTAVYYCNADSRRRLFDYWGQGTQVTVSS", "polyreactivity (PSR sort gate)": "high polyreactivity"}, {"sequence": "QVQLLESGGGLVQAGGSLRLSGAASGRIFRWYAMGWYRQAPGKEREFVAAITSSGGSTYYADSVMGRFTISRDNAKNTVYLQMNSLKPDDTAGYYCAALVYLGGSYSRGYDWGQGTQVTVSS", "polyreactivity (PSR sort gate)": "high polyreactivity"}, {"sequence": "QVQLVESGGGLVQAGGSLRLSCAASGIIFRLNTMGWYRPAPGTERELVAAITSGGSTHYADSVKGRFTISRDNAKNTVYLQRISLNPEDTAVYYCAAGHRAKYWAWHFYYPGDYWGQGTQVTVSS", "polyreactivity (PSR sort gate)": "low polyreactivity"}, {"sequence": "QVQLVESGGGLDQAGGSLRLICAASGRIFVYYTMVWYRQAPGKERELVAAITGSGGSTYYADSVKGRFTISRDNAKNTVYLQMNSLKPEDTAVYYCAVYDSYRSRTHRYPATFAYGSWGQGNQVTVSS", "polyreactivity (PSR sort gate)": "high polyreactivity"}, {"sequence": "QVQLVESGGGLVQAGGSLRLSCAASGRILFSYAMGWYRQAPGKERELVATISSGGRTNYADSVKGRFTISRDNAKNTVYLQMNSLKPEDTAVYYCNTEYLVWYPYDYWGQGTQVTVSS", "polyreactivity (PSR sort gate)": "low polyreactivity"}, {"sequence": "QVQLVESGGGLVQAGGSLRLSCAASGFIFIHYAMGWYRQAPGKERELVAAINRRGSRTYYADSVKGRFTISRDNAKNTVYLQMNSLKPEDSAVYYCAAGSRTEYDYWGQGSQVTVSS", "polyreactivity (PSR sort gate)": "high polyreactivity"}, {"sequence": "QVQLVESGGGLVQAGGSLRLSCAASGSTFIIYAMGWYRQAPGKERELVAAITWRGGTTYYADSVKGRFTISRDNAKNTVYLQMNSLKPEDTAVYYCNAKFGYPFVDYDDYWGQGTKVTVSS", "polyreactivity (PSR sort gate)": "low polyreactivity"}, {"sequence": "QVQLVESGGGLVQAGGSLRLSCAASGSNVHYMGGERQAPGKERELVAGISWSGGSTYYADSVMGRFTISRDNAKNTVYLQMNSLKPEDTAVDYCAADYYAHQDYRFDYWGQGTQVTVSS", "polyreactivity (PSR sort gate)": "low polyreactivity"}, {"sequence": "QVQLVESGGGLVQAGGSLRLSCAASGSIFRAYAMGWYRQAPGKERELVADISRSGGSTYYADSVKGRFTISRDNAKNTVYLQMNSLKPEDTAVYYCAAVFYLYSNLYGEYDYWGQGTQVTVSS", "polyreactivity (PSR sort gate)": "low polyreactivity"}, {"sequence": "QVQLVESGGGLVQAGGSLRLSCAASGFIFWINAMGWYRQAPGKERELVAAITKNGGTTYYADSVKGRFTISRDNAKNTVYLLMNSLKPEDTAVYYCAAGGIGGDQEVEGPMNYWGQGTQVTVSS", "polyreactivity (PSR sort gate)": "low polyreactivity"}, {"sequence": "QVQLVESGGGLVQAGGSLRLSCAASGRIFYQNAMGWYRQAPGKERELVAGITRGGSTYYADSVKGRFTISRDNAKNTVYLQMNSLKPEETAVYYCAVAFWRTKWYDYWGQGTQVTVSS", "polyreactivity (PSR sort gate)": "low polyreactivity"}, {"sequence": "QVQLVESGGGLVQAGGSLRLSCAASGSIFTRNAMGWYRQAPGKERELVAAISWRGGITNYADSVKGRFTISRDNAKNTVYLQMNSLKPEDTAVYYCNKKRTRGGYGYWGQGTQVTVSS", "polyreactivity (PSR sort gate)": "high polyreactivity"}, {"sequence": "QVQLVESGGGLVQAGGSLRLSCAASGSIFVYNTMGWYREAPGKERELVASITYSGGSTYYADSVKGRFTISRDNAKNTVYLQMNSLKPEDTAVYYCNTDDVALQWDWYPYPYDYWGQGTQVTVSS", "polyreactivity (PSR sort gate)": "low polyreactivity"}, {"sequence": "QVQLVESGGGLVQAGGSLRLSCAASGRIFKLYAMGWYRQAPGKERELVAAISTSGGSTYYADSVKGRFTISRDNAKNTVYLQMNSLKPEDTAVFYCAADPLSGYDYWGQGTQVTVSS", "polyreactivity (PSR sort gate)": "high polyreactivity"}, {"sequence": "QVQLVESGGGLVQAGGSLRLSCPASGSIFPTYAMGRYRQAPGKERELVAAITTSGGNTFYADSVKGRFTISRDNAKNTVYLQMNRLKPEDTAVYYCAAYYSPYTVEYDYWGQGTLVTVSS", "polyreactivity (PSR sort gate)": "low polyreactivity"}, {"sequence": "QVKLVESVGALVQAGGSHRLSCAASGNTFPWYVLGWYRHATGKERELLAAITSSGSTTYYADSVKGRFTISRDNAKNTVYLQMNSLKPDDNAVYYCAARNYGPYDYWGPGTQVTVSS", "polyreactivity (PSR sort gate)": "low polyreactivity"}, {"sequence": "QVQLVESGGGLVQAGGSLRISCAASGFICPQNTMGWYRQAPGTERELVAAITSCGSTYYADSVKGRFTISRDNGKNTVYLQMNSLKPEDTAVYYCAARPYGNWTYGYWGQGTQVTVSS", "polyreactivity (PSR sort gate)": "low polyreactivity"}, {"sequence": "QVQLVESGGGLVQAGGSLRLSCAASGSTFRWNAMGWYRQAPWKERELVAAITWSGGRTYYADSVKGRFTISRDNAKNTVYLQMNSLKPEDTAVYYCAAVRGPEHWYDYYYWGQGTQVTVSS", "polyreactivity (PSR sort gate)": "high polyreactivity"}, {"sequence": "QVQLVESGGGLVQAGGSLRLSCAASGSIFDDYAMGWYRQAPGNERELVAAITSGGSTYYADSVKGRFTISRDNAKNTVYLQMNSLKPEDTAVYYWAAPENKSDEYDYWGQGTQVTVSS", "polyreactivity (PSR sort gate)": "low polyreactivity"}, {"sequence": "QVQLVESGGGLVQAGGSLRLSCAASGITFGWNVAMGWYRQAPGKERELVATITNGGSTKYADSVKGRFTISRDNAKNTVYLQMNSLKPEDTAVYYCAARVYHRFEWFHQYDYWGQGTQVTVSS", "polyreactivity (PSR sort gate)": "high polyreactivity"}, {"sequence": "QVQLVESGGGLVQAGGSLRLSCAASGSARYAMGWYRQAPGKERELVAAISRRGGSTFYADSVKGRFTISRDNAMNTVYLQMNSLKPEDTAVYYCAADGRISYDYWGQGTQVTVSS", "polyreactivity (PSR sort gate)": "low polyreactivity"}, {"sequence": "QVQLVESGGGLVQAGGSLRLSCAASGSTFYLNAMGWYRQAPGKERELVAAISSGGNTNYADSVKGRFTISRDNAKNTVYLQMNSLKPEDTAVYYCAAVYLSWYGLGEYWGQGTQVTVSS", "polyreactivity (PSR sort gate)": "low polyreactivity"}, {"sequence": "QVQLVESGGGLVQAGGSLRLSCAASGFIYYRYAMGWYRQAPGKERELVAAISRSGGSTYYADSVKGRFTISRDNAKNTVYLQMNSLNPEDTAVYYCAARDPGGAVGAAFDSWGQCTQVTVSS", "polyreactivity (PSR sort gate)": "low polyreactivity"}, {"sequence": "QVKLVESGGGLVQAGGSLRLSWAASGSILNRYAMGWYRQAPGKERELVAAITGSSGSTYYADSVKGRFTISRDNAKNTVYLQMNSLKPEDTAVYYCATAFRNGRGSYYYWGQGTQVTVSS", "polyreactivity (PSR sort gate)": "high polyreactivity"}, {"sequence": "QVQLVESGRGLVQAGGSLRLSCAASGRIFYYYAMGWYRKAPRKERELVAANTETGGNTYYADSVKGRFTISRDNAKNTVYLQMNSLKPEDTAVYYCARKGRRTHHYGLYSSSVYYWGQGTQVTVSS", "polyreactivity (PSR sort gate)": "low polyreactivity"}, {"sequence": "QVQLVESGGGLVQAGGSLRLSCAASGSIFYPYGMGWYRQAPGKEREFVAAISWSGGTTYYADSVKGRFTISRDNAKNTVYLQMNSLKKEDTGVYYCAAVSFYGVGGTWYNYWGKGTQVTVSS", "polyreactivity (PSR sort gate)": "high polyreactivity"}, {"sequence": "QVHLVESGGGLVQAGGSLRLSCAASGFIFNVYAMGWYRQAPGKERELVAAISFSGTSTYYADSVKGRFTISRDNAKNTVYLQMNSLKPEDTAVYYCAARYWSRDQWPRSLYYWGQGTQVTVSS", "polyreactivity (PSR sort gate)": "high polyreactivity"}, {"sequence": "QVQLVESGGGLVQAGGSLRLSCAASGFTFSSNAMGWYRQAPGKERELVAAISRGGRTYYADSVKGRFTISRDNAKNTVYLQMNSLKPEDTAVYYCATDYVYRYDYWGQGTQVTVSS", "polyreactivity (PSR sort gate)": "high polyreactivity"}, {"sequence": "QVQLVESGGGLVQAGGSLRLTCAASGSTLNYYAMGWYRQAPGKERELVAAIRSGGNTNYADSVKGRFTISRDNAKNTVYLQMNSLKPEDTAVYYCAKDESYFYDRVPLDYWGQGTQVTVSS", "polyreactivity (PSR sort gate)": "low polyreactivity"}]}]}
